What is called Kd is the constant that tells how readily two partners part at equilibrium. A low value points to tighter binding.

Results on four molecules are retold here after patent US20250161481A1 (published 2025).

Assay [1] concerns the target human Cluster of Differentiation 3 protein (CD3) (human, UniProt P07766 23-207; P09693 23-182; P04234 22-171; P20963 22-164).
In assay [2] the target is human Cluster of Differentiation 28 protein (CD28) (human, UniProt P10747 19-220).

B1: MX1507 (antibody)
heavy 1: not shown
heavy 2: QVQLVQSGAEVAKPGASVKVSCKASGYTFTRYTMHWVKQAPGQGLEWIGYINPSRGYTNYAQKFQGKATLTTDKSTSTAYMELSSLRSEDTAVYYCARYYDDHYSLDYWGQGTTLTVSSASTKGPSVFPLAPSSKSTSGGTAALGCLVKDYFPEPVTVSWNSGALTSGVHTFPAVLQSSGLYSLSSVVTVPSSSLGTQTYICNVNHKPSNTKVDKKVEPKSCDKTHTCPPCPAPEAAGGPSVFLFPPKPKDTLMISRTPEVTCVVVDVSHEDPEVKFNWYVDGVEVHNAKTKPREEQYNSTYRVVSVLTVLHQDWLNGKEYKCKVSNKALAAPIEKTISKAKGQPREPQVCTLPPSRDELTKNQVSLSCAVKGFYPSDIAVEWESNGQPENNYKTTPPVLDSDGSFFLVSKLTVDKSRWQQGNVFSCSVMHEALHNHYTQKSLSLSPG
light: DIQLTQSPSSLSASVGDRVTITCRASQSISYLNWYQQKPGKSPKRWIYDTSKLASGVPSRFSGSGSGTDYTLTISSMQPEDAATYYCQQWSSNPLTFGGGTKVEIKRTVAAPSVFIFPPSDEQLKSGTASVVCLLNNFYPREAKVQWKVDNALQSGNSQESVTEQDSKDSTYSLSSTLTLSKADYEKHKVYACEVTHQGLSSPVTKSFNRGEC
modifications: engineered C-terminal cysteine of the knob chain, joined by maleimide-thiol reaction to DSPE-PEG2000-maleimide on the LNP surface
On to B1, for which the Kd in assay [1] was determined as 727 nM.

B2: MX1500 (antibody)
chain 1: not shown
chain 2: DIQLTQSPSSLSASVGDRVTITCRASQSISYLNWYQQKPGKSPKRWIYDTSKLASGVPSRFSGSGSGTDYTLTISSMQPEDAATYYCQQWSSNPLTFGGGTKVEIKRTVAAPSVFIFPPSDEQLKSGTASVVCLLNNFYPREAKVQWKVDNALQSGNSQESVTEQDSKDSTYSLSSTLTLSKADYEKHKVYACEVTHQGLSSPVTKSFNRGECGGGGSGGGGSGGGGSGGGGSGGGGSGGGGSGGGGSGGGGSQVQLVQSGAEVAKPGASVKVSCKASGYTFTRYTMHWVKQAPGQGLEWIGYINPSRGYTNYAQKFQGKATLTTDKSTSTAYMELSSLRSEDTAVYYCARYYDDHYSLDYWGQGTTLTVSSASTKGPSVFPLAPSSKSTSGGTAALGCLVKDYFPEPVTVSWNSGALTSGVHTFPAVLQSSGLYSLSSVVTVPSSSLGTQTYICNVNHKPSNTKVDKKVEPKSCDKTHTCPPCPAPEAAGGPSVFLFPPKPKDTLMISRTPEVTCVVVDVSHEDPEVKFNWYVDGVEVHNAKTKPREEQYNSTYRVVSVLTVLHQDWLNGKEYKCKVSNKALAAPIEKTISKAKGQPREPQVCTLPPSRDELTKNQVSLSCAVKGFYPSDIAVEWESNGQPENNYKTTPPVLDSDGSFFLVSKLTVDKSRWQQGNVFSCSVMHEALHNHYTQKSLSLSPG
Molecule B2 yielded an equilibrium dissociation constant (Kd) in assay [1] of 1050 nM.

B3: MX1243 (antibody)
chain 1: not shown
chain 2: DIQLTQSPSSLSASVGDRVTITCRASQSISYLNWYQQKPGKSPKRWIYDTSKLASGVPSRFSGSGSGTDYTLTISSMQPEDAATYYCQQWSSNPLTFGGGTKVEIKGGGGSGGSGSGGGGSASGSGQVQLVQSGAEVAKPGASVKVSCKASGYTFTRYTMHWVKQAPGQGLEWIGYINPSRGYTNYAQKFQGKATLTTDKSTSTAYMELSSLRSEDTAVYYCARYYDDHYSLDYWGQGTTLTVSSASGGSGDKTHTCPPCPAPEAAGGPSVFLFPPKPKDTLMISRTPEVTCVVVDVSHEDPEVKFNWYVDGVEVHNAKTKPREEQYNSTYRVVSVLTVLHQDWLNGKEYKCKVSNKALAAPIEKTISKAKGQPREPQVCTLPPSRDELTKNQVSLSCAVKGFYPSDIAVEWESNGQPENNYKTTPPVLDSDGSFFLVSKLTVDKSRWQQGNVFSCSVMHEALHNHYTQKSLSLSPG
Consider B3, for which the Kd is 2.55 nM in assay [2] and 6.92 nM in assay [1].

B4: MX1506 (antibody)
heavy 1: not shown
heavy 2: QVQLVQSGAEVKKPGASVKVSCKASGYTFTSYYIHWVRQAPGQGLEWIGSIYPGNVNTNYNEKFKDRATLTVDTSISTAYMELSRLRSDDTAVYFCTRSHYGLDWNFDVWGQGTTVTVSSASTKGPSVFPLAPSSKSTSGGTAALGCLVKDYFPEPVTVSWNSGALTSGVHTFPAVLQSSGLYSLSSVVTVPSSSLGTQTYICNVNHKPSNTKVDKKVEPKSCDKTHTCPPCPAPEAAGGPSVFLFPPKPKDTLMISRTPEVTCVVVDVSHEDPEVKFNWYVDGVEVHNAKTKPREEQYNSTYRVVSVLTVLHQDWLNGKEYKCKVSNKALAAPIEKTISKAKGQPREPQVCTLPPSRDELTKNQVSLSCAVKGFYPSDIAVEWESNGQPENNYKTTPPVLDSDGSFFLVSKLTVDKSRWQQGNVFSCSVMHEALHNHYTQKSLSLSPG
light: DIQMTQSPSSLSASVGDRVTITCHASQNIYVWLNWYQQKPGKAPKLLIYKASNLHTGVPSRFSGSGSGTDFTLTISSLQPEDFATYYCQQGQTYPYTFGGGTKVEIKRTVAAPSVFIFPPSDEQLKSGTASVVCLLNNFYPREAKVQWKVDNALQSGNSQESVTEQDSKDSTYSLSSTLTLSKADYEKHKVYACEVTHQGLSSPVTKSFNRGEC
modifications: engineered C-terminal cysteine of the knob chain, joined by maleimide-thiol reaction to DSPE-PEG2000-maleimide on the LNP surface
As for B4, the affinity in assay [2], expressed as Kd, was 1.34 nM.
